The supplement of paper PMC11246515
± gives the standard deviation of the averaged measurements.

Experiment: total protein half-life in vivo (active degradation + dilution); higher = more stable protein
[1] = E. coli NCM3722 delta-clpP delta-lon delta-hslV, growth: N-lim chemostat, doubling time 6 h
[2] = E. coli NCM3722 delta-clpP, growth: N-lim chemostat, doubling time 6 h
[3] = E. coli NCM3722 delta-hslV, growth: N-lim chemostat, doubling time 6 h
[4] = E. coli NCM3722 delta-lon, growth: N-lim chemostat, doubling time 6 h
[5] = E. coli NCM3722 delta-smpB, growth: N-lim chemostat, doubling time 6 h
[6] = wild type E. coli NCM3722, growth: C-lim chemostat, doubling time 3 h
[7] = wild type E. coli NCM3722, growth: C-lim chemostat, doubling time 6 h
[8] = wild type E. coli NCM3722, growth: C-lim chemostat, doubling time 12 h
[9] = wild type E. coli NCM3722, growth: N-lim chemostat, doubling time 6 h
[10] = wild type E. coli NCM3722, growth: N-lim chemostat, doubling time 12 h
[11] = wild type E. coli NCM3722, growth: P-lim chemostat, doubling time 6 h
[12] = wild type E. coli NCM3722, growth: P-lim chemostat, doubling time 12 h

Row | Sequence | total protein half-life in vivo [1] | total protein half-life in vivo [2] | total protein half-life in vivo [3] | total protein half-life in vivo [4] | total protein half-life in vivo [5] | total protein half-life in vivo [6] | total protein half-life in vivo [7] | total protein half-life in vivo [8] | total protein half-life in vivo [9] | total protein half-life in vivo [10] | total protein half-life in vivo [11] | total protein half-life in vivo [12]
1 | MSKGTTSQDAPFGTLLGYAPGGVAIYSSDYSSLDPQEYEDDAVFRSYIDDEYMGHKWQCVEFARRFLFLNYGVVFTDVGMAWEIFSLRFLREVVNDNILPLQAFPNGSPRAPVAGALLIWDKGGEFKDTGHVAIITQLHGNKVRIAEQNVIHSPLPQGQQWTRELEMVVENGCYTLKDTFDDTTILGWMIQTEDTEYSLPQPEIAGELLKISGARLENKGQFDGKWLDEKDPLQNAYVQANGQVINQDPYHYYTITESAEQELIKATNELHLMYLHATDKVLKDDNLLALFDIPKILWPRLRLSWQRRRHHMITGRMDFCMDERGLKVYEYNADSASCHTEAGLILERWAEQGYKGNGFNPAEGLINELAGAWKHSRARPFVHIMQDKDIEENYHAQFMEQALHQAGFETRILRGLDELGWDAAGQLIDGEGRLVNCVWKTWAWETAFDQIREVSDREFAAVPIRTGHPQNEVRLIDVLLRPEVLVFEPLWTVIPGNKAILPILWSLFPHHRYLLDTDFTVNDELVKTGYAVKPIAGRCGSNIDLVSHHEEVLDKTSGKFAEQKNIYQQLWCLPKVDGKYIQVCTFTVGGNYGGTCLRGDESLVIKKESDIEPLIVVKK [P0AES0] | 5 ± 0.066 h | 4.62 ± 0.17 h | 4.62 ± 0.18 h | 6.12 ± 1.3 h | 4.58 ± 0.23 h | 3 ± 0.4 h | 5.17 ± 0.38 h | 10.6 ± 0.36 h | 4.645 ± 0.024 h | 8.42 ± 0.4 h | 5.85 ± 0.5 h | 11.2 ± 0.72 h
2 | MSKIIATLYAVMDKRPLRALSFVMALLLAGCMFWDPSRFAAKTSELEIWHGLLLMWAVCAGVIHGVGFRPQKVLWQGIFCPLLADIVLIVGLIFFFF [P0AAV0] |  |  |  | 5.39 h |  |  |  |  |  |  |  | 
3 | MSKIRVLSVDDSALMRQIMTEIINSHSDMEMVATAPDPLVARDLIKKFNPDVLTLDVEMPRMDGLDFLEKLMRLRPMPVVMVSSLTGKGSEVTLRALELGAIDFVTKPQLGIREGMLAYNEMIAEKVRTAAKASLAAHKPLSAPTTLKAGPLLSSEKLIAIGASTGGTEAIRHVLQPLPLSSPALLITQHMPPGFTRSFADRLNKLCQIGVKEAEDGERVLPGHAYIAPGDRHMELSRSGANYQIKIHDGPAVNRHRPSVDVLFHSVAKQAGRNAVGVILTGMGNDGAAGMLAMRQAGAWTLAQNEASCVVFGMPREAINMGGVCEVVDLSQVSQQMLAKISAGQAIRI | 4.85 h |  |  |  |  | 2.09 ± 0.19 h | 3.21 ± 0.2 h | 5.6 ± 0.28 h |  |  |  | 9.95 h
4 | MSKISDLNYSQHITLADNFKQKSEVLNTWRVGMNDFARIAGGQDNRRNILSPGAFLEFLAKIFTLGYVDFSKRSNEAGRNMMAHIKSSSYSKDTNGNEKMKFYMNNPVGERADSPKVIIEISLSTITTMGTRQGHTAIIFPQPDGSTNRYEGKSFERKDESSLHLITNKVLACYQSEANKKIARLLNNNQELNNLQKLNNLQKLNNLLKLNNIQGLNNPQELNNPQNLNDSQELNNSQELNSPQELNDPQELNNSQDLNNSKVSCTVSVDSTITGLLKEPLNNALLAIRNEHLLLMPHVCDESISYLLGEKGILEEIDKLYALNDHGIDNDKVGNNEINDIKVNLSHILIDSLDDAKVNLTPVIDSILETFSKSPYINDVRILDWCFNKSMQYFDDTKKIKHACSVINHINLRSDQSKIAETLFFNLDKEPYKNSPELQGLIWNKLVVYVNEFNLSNREKTNLIQRLFDNVESIFNEVPVSILVNDIFMNDFFMKNPEMINWYFPQLLKSYEGEKIYFDNLKYDLNDNDKESNKEILKNQPDNVIKEKLNNEYKLRFRMMQTILQSRVNVLPYINEQRLNKLNPPENLRIAIEHFGWKNRPITA | 5.05 h | 4.13 ± 0.42 h | 4.07 h | 3.78 h |  | 1.27 h | 3.95 ± 2.7 h | 8.85 h |  |  | 2.71 h | 2.84 ± 1.1 h
5 | MSKKIVLALGGNALGDDLAGQMKAVKITSQAIVDLIAQGHEVIVTHGNGPQVGMINQAFEAAAKTEAHSPMLPMSVCVALSQGYIGYDLQNALREELLSRGINKPVATLVTQVEVDANDPAFLNPTKPIGSFFTEQEAEQLTKQGYTLKEDAGRGYRRVVASPKPVDIIEKETVKALVDAGQVVITVGGGGIPVIREGNHLRGASAVIDKDWASARLAEMIDADMLIILTAVEKVAINFGKENEQWLDRLSLSDAERFIEEGHFAKGSMLPKVEAAASFARSRAGREALITVLSKAKEGIEGKTGTVICQ | 3.53 h |  | > 8 h |  | 2.48 h | 2.84 ± 0.39 h | 3.92 h | 6.22 ± 1.5 h | 2.66 h |  | 3.03 h | 5.27 ± 1.5 h
6 | MSKKLIALCACPMGLAHTFMAAQALEEAAVEAGYEVKIETQGADGIQNRLTAQDIAEATIIIHSVAVTPEDNERFESRDVYEITLQDAIKNAAGIIKEIEEMIASEQQ | 4.54 ± 0.89 h |  |  |  |  | 2.27 ± 0.1 h | 4.02 ± 0.38 h | 5.83 ± 0.31 h |  |  |  | 
7 | MSKLDLNALNELPKVDRILALAETNAELEKLDAEGRVAWALDNLPGEYVLSSSFGIQAAVSLHLVNQIRPDIPVILTDTGYLFPETYRFIDELTDKLKLNLKVYRATESAAWQEARYGKLWEQGVEGIEKYNDINKVEPMNRALKELNAQTWFAGLRREQSGSRANLPVLAIQRGVFKVLPIIDWDNRTIYQYLQKHGLKYHPLWDEGYLSVGDTHTTRKWEPGMAEEETRFFGLKRECGLHEG | 4.38 ± 0.8 h | 4.21 ± 0.56 h | 1.29 ± 0.27 h | 1.64 ± 0.023 h | 1.37 ± 0.087 h | 2.11 ± 0.095 h | 2.91 ± 0.58 h | 4.05 ± 0.29 h | 1.47 ± 0.077 h | 1.721 ± 0.012 h | 3.28 ± 0.37 h | 6.15 ± 0.27 h
8 | MSKLDTFIQHAVNAVPVSGTSLISSLYGDSLSHRGGEIWLGSLAALLEGLGFGERFVRTALFRLNKEGWLDVSRIGRRSFYSLSDKGLRLTRRAESKIYRAEQPAWDGKWLLLLSEGLDKSTLADVKKQLIWQGFGALAPSLMASPSQKLADVQTLLHEAGVADNVICFEAQIPLALSRAALRARVEECWHLTEQNAMYETFIQSFRPLVPLLKEAADELTPERAFHIQLLLIHFYRRVVLKDPLLPEELLPAHWAGHTARQLCINIYQRVAPAALAFVSEKGETSVGELPAPGSLYFQRFGGLNIEQEALCQFIR |  |  | 4.03 ± 0.075 h | 4.2 ± 0.044 h | 4.07 ± 0.076 h | 2.77 ± 0.17 h | 5.07 ± 0.31 h | 8.39 ± 0.13 h | 4.07 ± 0.22 h | 6.84 ± 0.13 h | 4.82 ± 0.088 h | 8.96 ± 0.47 h
